From article doi:10.1101/711796

These substances were tested against taxol-stabilized microtubules (UniProt Q6B856) (assay: co-sedimentation).
Sequence of UniProt Q6B856 (Q6B856 whole entry, looked up): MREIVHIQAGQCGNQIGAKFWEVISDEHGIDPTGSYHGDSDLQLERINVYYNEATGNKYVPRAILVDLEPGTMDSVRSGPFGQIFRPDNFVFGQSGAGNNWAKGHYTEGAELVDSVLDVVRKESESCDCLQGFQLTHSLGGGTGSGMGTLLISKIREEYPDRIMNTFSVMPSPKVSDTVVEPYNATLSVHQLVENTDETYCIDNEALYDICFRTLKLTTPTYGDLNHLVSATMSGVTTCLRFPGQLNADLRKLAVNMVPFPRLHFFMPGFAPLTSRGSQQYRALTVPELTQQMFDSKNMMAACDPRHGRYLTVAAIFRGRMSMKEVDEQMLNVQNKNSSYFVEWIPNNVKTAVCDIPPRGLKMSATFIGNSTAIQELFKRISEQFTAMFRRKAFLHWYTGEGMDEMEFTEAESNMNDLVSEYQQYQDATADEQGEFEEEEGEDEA

Substance	Kd
HIS-TAN1-GFP-Atto488 (natural protein)	60 nM
6xHIS-tagged ZmTAN1 (TANGLED1, maize) (natural protein)	1270 nM
HIS-TAN1-GFP (natural protein)	590 nM
